The values below come from patent publication US20150024066A1, “METHODS FOR […] TREATING EXCESS WEIGHT USING OXYNTOMODULIN” (IMPERIAL INNOVATIONS, published 2015).

By IC50 is commonly meant the concentration that gives 50% inhibition. Read a high IC50 as weaker potency in that assay.

For assay [1], the target named is T1, GLP-1 receptor (rat, UniProt P32301). Briefly: competition of [^125I]GLP-1 binding to rat hypothalamic membranes; reference GLP-1.
Assay [2] has as its target T1, GLP-1 receptor. The assay is described as follows: competition of [^125I]GLP-1 binding to rat hypothalamic membranes, unlabeled peptide varied. As to the method:
Membranes were incubated at room temperature for 90 min. Bound and free radioactivity were separated by centrifugation (2 min, 4° C.). Pelleted membranes were washed with assay buffer (0.5 ml, ice-cold), and the membranes were centrifuged as described above. The supernatant was removed, and the radioactivity in the pellet was counted using a γ-counter. […] All curves were constructed with points in triplicate. IC₅₀ values were calculated using the Prism 3 program (GraphPad Software, Inc., San Diego, Calif.).

B1: oxyntomodulin (OXM) (peptide)
peptide: HSQGTFTSDYSKYLDSRRAQDFVQWLMNTKRNKNNIA
Consider B1, for which the “affinity relative to GLP-1” value in assay [1] was ~2 orders of magnitude weaker. The same molecule gave an IC50 in assay [2] of 8.2 nM.
